# Results published in patent publication US20040265808A1, “Genes involved in osteogenesis, and methods of use” (priority 2001, published 2004).
# Tests used:
# C2C12 cells = assay: Transient over-expression of candidate genes, cooperation with BMP2 by measurement of alkaline phosphatase; assay type: cell-based, mouse; set-up: key: +: positive or negative cooperation with BMP2; −: positive or negative cooperation with BMP2
# How it was run: (§1)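 Candidate genes transiently over-expressed in C3H10T1/2 and/or C2C12 mouse cells; positive or negative cooperation with BMP2 scored by alkaline phosphatase, enzymatic activity and TaqMan, at 48 h. Recombinant Sonic Hedgehog and Noggin serve as positive and negative cooperation controls.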
# C3H10T1/2 cells = assay: as above; assay type: cell-based, mouse; set-up: key: +: positive or negative cooperation with BMP2; −: positive or negative cooperation with BMP2; conditions: alkaline phosphatase
# How it was run: as §1
molecule,measurement,setting,value
"68 (nucleic acid, listed as Mus musculus) CGATCGATATGGTCACCCACAGCAAGTTTCCCGCCGCCGGGATGAGCCGCCCCCTGGACACCAGCCTGCGCCTCAAGACCTTCAGCTCCAAAAGCGAGTACCAGCTGGTGGTGAACGCCGTGCGCAAGCTGCAGGAGAGCGGATTCTACTGGAGCGCCGTGACCGGCGGCGAGGCGAACCTGCTGCTCAGCGCCGAGCCCGCGGGCACCTTTCTTATCCGCGACAGCTCGGACCAGCGCCACTTCTTCACGTTGAGCGTCAAGACCCAGTCGGGGACCAAGAACCTACGCATCCAGTGTGAGGGGGGCAGCTTTTCGCTGCAGAGTGACCCCCGAAGCACGCAGCCAGTTCCCCGCTTCGACTGTGTACTCAAGCTGGTGCACCACTACATGCCGCCTCCAGGGACCCCCTCCTTTTCTTTGCCACCCACGGAACCCTCGTCCGAAGTTCCGGAGCAGCCACCTGCCCAGGCACTCCCCGGGAGTACCCCCAAGAGAGCTTACTACATCTATTCTGGGGGCGAGAAGATTCCGCTGGTACTGAGCCGACCTCTCTCCTCCAACGTGGCCACCCTCCAGCATCTTTGTCGGAAGACTGTCAACGGCCACCTGGACTCCTATGAGAAAGTGACCCAGCTGCCTGGACCCATTCGGGAGTTCCTGGATCAGTATGATGCTCCACTTGCGGCCGCTT",Validation in vitro (coop over BMP2) C2C12,C2C12 cells,−
same,Validation in vitro (coop over BMP2) C3H10T1/2,C3H10T1/2 cells,−
